Reference: PMC8092299, “Bifunctional Malic/Malolactic Enzyme Provides a Novel Mechanism for NADPH-Balancing in Bacillus subtilis” (mBio, 2021)

B1: YtsJ (Bacillus subtilis subsp. subtilis str. 168) (protein)
chain: MSLREEALHLHKVNQGKLESKSKVEVRNAKDLSLAYSPGVAEPCKDIHEDINKVYDYTMKGNMVAVVTDGTAVLGLGNIGPEAALPVMEGKAVLFKSFAGVDAFPIALNTNDVDKIVETVKLLEPTFGGVNLEDIAAPNCFIIEERLKKETNIPVFHDDQHGTAIVTVAGLVNALKLSGKSMSSIKVVANGAGAAGIAIIKLLHHYGVRDIVMCDSKGAIYEGRPNGMNDVKNEVAKFTNQDRKDGSLKDVIVDADVFIGVSVAGALTKEMVQSMAKDPIIFAMANPNPEIMPEDAREAGASVVGTGRSDFPNQVNNVLAFPGIFRGALDVRATHINEEMKIAAVEAIASLVSEDELSADYVIPAPFDKRVAPAVAKAVAKAAMETGVARITVDPEEVAEKTRKLTIIGE
notes: His6-tagged, overexpressed in E. coli (QIAexpress), Ni-NTA purified, tag kept

Tests used:
[1] = target: T1, MaeB (Escherichia coli, UniProt P76558); assay: flow-injection TOF MS, lactate formation (malolactic activity); assay type: biochemical; conditions: NAD+, malate, pyruvate and 1 mM NADPH; 10 mM potassium phosphate pH 7.4, 2.5 mM MgCl2, 50 mM KCl, 1 mM NaHCO3, room temperature
T1 construct: His-tagged from ASKA His tag collection library, overexpressed in E. coli, Ni-NTA purified, tag kept
T1 sequence (P76558 1-759): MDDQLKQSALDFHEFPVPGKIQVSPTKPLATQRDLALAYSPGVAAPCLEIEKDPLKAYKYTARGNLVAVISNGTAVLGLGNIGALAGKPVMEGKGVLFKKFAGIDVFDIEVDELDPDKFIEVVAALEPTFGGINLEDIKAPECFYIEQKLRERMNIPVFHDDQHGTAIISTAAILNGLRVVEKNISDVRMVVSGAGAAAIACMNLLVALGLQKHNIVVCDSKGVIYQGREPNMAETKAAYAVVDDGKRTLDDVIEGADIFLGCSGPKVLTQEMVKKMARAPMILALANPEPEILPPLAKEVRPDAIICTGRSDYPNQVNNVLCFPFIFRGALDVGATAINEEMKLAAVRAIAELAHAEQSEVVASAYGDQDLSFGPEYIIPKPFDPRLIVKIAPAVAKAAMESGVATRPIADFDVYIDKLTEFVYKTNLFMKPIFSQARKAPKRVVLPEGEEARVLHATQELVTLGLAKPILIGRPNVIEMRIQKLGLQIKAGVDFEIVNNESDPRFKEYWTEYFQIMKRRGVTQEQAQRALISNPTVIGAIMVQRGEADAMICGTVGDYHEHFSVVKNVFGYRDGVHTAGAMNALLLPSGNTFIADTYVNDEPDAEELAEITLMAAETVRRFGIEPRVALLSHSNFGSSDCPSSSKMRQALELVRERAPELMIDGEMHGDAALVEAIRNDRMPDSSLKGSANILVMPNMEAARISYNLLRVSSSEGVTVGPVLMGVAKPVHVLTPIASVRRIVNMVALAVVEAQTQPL

[2] = substrate: CC(=O)C(=O)O; assay: purified protein; assay type: biochemical, Bacillus subtilis; conditions: reductive carboxylation, NADH and NADPH both added at 0.2 mM, 50 mM NaHCO3, 5 mM MgCl2, 50 mM KCl, 100 mM Tris-HCl pH 7.8, 37°C
[3] = substrate: NC(=O)C1=CN([C@@H]2O[C@H](COP(=O)(O)OP(=O)(O)OC[C@H]3O[C@@H](n4cnc5c(N)ncnc54)[C@H](OP(=O)(O)O)[C@@H]3O)[C@@H](O)[C@H]2O)C=CC1; assay: purified protein; assay type: biochemical, Bacillus subtilis; conditions: reductive carboxylation, 20 mM pyruvate, 50 mM NaHCO3, 5 mM MgCl2, 50 mM KCl, 100 mM Tris-HCl pH 7.8, 37°C, varied: cofactor

| Molecule | flow-injection TOF MS, lactate formation (malolactic activity) [1] | Km [2] [mM] | Km [3] [mM] |
| --- | --- | --- | --- |
| O=C(O)C[C@H](O)C(=O)O [malate] | we observed lactate production and, thus, malolactic activity by MaeB | – | – |
| B1 | – | 5.3 ± 1.3 | 0.8 ± 0.5 |
